Measured values: paper PMC9237092, “Structural basis for defective membrane targeting of mutant enzyme in human VLCAD deficiency” (Nature Communications, 2022)
Changes are numbered by the printed parent chain. Names may count otherwise.

B1: full-length human VLCAD (very long-chain acyl-CoA dehydrogenase) lacking its cleavable leader sequence, wild type (enzyme, UniProt P49748 41-655, looked up)
chain: AGGAAQLALDKSDSHPSDALTRKKPAKAESKSFAVGMFKGQLTTDQVFPYPSVLNEEQTQFLKELVEPVSRFFEEVNDPAKNDALEMVEETTWQGLKELGAFGLQVPSELGGVGLCNTQYARLVEIVGMHDLGVGITLGAHQSIGFKGILLFGTKAQKEKYLPKLASGETVAAFCLTEPSSGSDAASIRTSAVPSPCGKYYTLNGSKLWISNGGLADIFTVFAKTPVTDPATGAVKEKITAFVVERGFGGITHGPPEKKMGIKASNTAEVFFDGVRVPSENVLGEVGSGFKVAMHILNNGRFGMAAALAGTMRGIIAKAVDHATNRTQFGEKIHNFGLIQEKLARMVMLQYVTESMAYMVSANMDQGATDFQIEAAISKIFGSEAAWKVTDECIQIMGGMGFMKEPGVERVLRDLRIFRIFEGTNDILRLFVALQGCMDKGKELSGLGSALKNPFGNAGLLLGEAGKQLRRRAGLGSGLSLSGLVHPELSRSGELAVRALEQFATVVEAKLIKHKKGIVNEQFLLQRLADGAIDLYAMVVVLSRASRSLSEGHPTAQHEKMLCDTWCIEAAARIREGMAALQSDPWQQELYRNFKSISKALVERGGVVTSNPLGF
notes: mature protein aa 1-615. numbers count on: the mature protein; pET19b vector; also called wild-type VLCAD; full-length VLCAD; source: E. coli BL21(DE3), purified (Ni-NTA, SEC)
B2: full-length human VLCAD A450P (enzyme, UniProt P49748 41-655, looked up)
chain: B1 chain with A450P
notes: Mutation observed in patients with VLCAD deficiency; made by site-directed mutagenesis of the pET19b construct; also called A450P variant; source: E. coli BL21(DE3), purified (Ni-NTA, SEC)
B3: full-length human VLCAD L462P (enzyme, UniProt P49748 41-655, looked up)
chain: B1 chain with L462P
notes: Mutation observed in patients with VLCAD deficiency; made by site-directed mutagenesis of the pET19b construct; also called L462P mutant; source: E. coli BL21(DE3), purified (Ni-NTA, SEC)

Molecular target: the molecule itself
Experiment: SEC; Superdex 200 10/300 GL, 4 °C, 250 mM NaCl, 50 mM Tris, pH 8.0; purified VLCAD proteins; peak at ~150 kDa

Protein | stoichiometry N
B1 | 2
B2 | 2
B3 | 2
